Source: paper PMC6614801

Molecular target: T1, SuhB (inositol mono-phosphatase SuhB), wild type (E. coli), P0ADG4
T1 chain: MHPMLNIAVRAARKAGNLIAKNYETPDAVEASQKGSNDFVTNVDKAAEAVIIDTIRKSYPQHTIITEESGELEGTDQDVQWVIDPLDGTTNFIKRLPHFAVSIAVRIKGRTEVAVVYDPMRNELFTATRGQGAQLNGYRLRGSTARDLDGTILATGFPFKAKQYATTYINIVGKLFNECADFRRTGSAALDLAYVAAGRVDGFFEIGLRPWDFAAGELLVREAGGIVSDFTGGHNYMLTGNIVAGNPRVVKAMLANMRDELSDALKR
Experiment: SEC-MALS; 60 μl (15 nmol) of SuhB on Superdex 200 increase 10/300; 20 mM HEPES pH 7.5, 50 mM NaCl, 0.02% (w/v) NaN3
Details: remark: other sources report otherwise

- stoichiometry N: 2
B1: SuhB (inositol mono-phosphatase SuhB), wild type, P0ADG4 1-267 (natural protein)
chain: MHPMLNIAVRAARKAGNLIAKNYETPDAVEASQKGSNDFVTNVDKAAEAVIIDTIRKSYPQHTIITEESGELEGTDQDVQWVIDPLDGTTNFIKRLPHFAVSIAVRIKGRTEVAVVYDPMRNELFTATRGQGAQLNGYRLRGSTARDLDGTILATGFPFKAKQYATTYINIVGKLFNECADFRRTGSAALDLAYVAAGRVDGFFEIGLRPWDFAAGELLVREAGGIVSDFTGGHNYMLTGNIVAGNPRVVKAMLANMRDELSDALKR
